According to WO2014027697A1 (dated 2014):
Where a chain is given by its changes, count along the chain named. *: point of attachment. Biotin = O=C1N[C@H]2[C@H](CS[C@H]2CCCCC(=O)*)N1; Ahx = NCCCCCC(=O)O

Key:
MBP-PspA-BAA658-S4 = target: T1, MBP-PspA-BAA658-S4 (Streptococcus pneumoniae strain BAA-658); experiment: ELISA on plates coated with E. coli lysate holding the MBP-tagged fragment, antibody at 1 μg/mL
T1 construct: Tested as cleared E. coli lysate coated on ELISA plates; also called MBP-BAA658(S4)

MBP-PspA-BAA658-S3 [1] = target: T2, MBP-PspA-BAA658-S3 (Streptococcus pneumoniae strain BAA-658); experiment: as above
T2 construct: Tested as cleared E. coli lysate coated on ELISA plates; also called MBP-BAA658(S3)

MBP-PspA-BAA658-FL = target: T3, MBP-PspA-BAA658-FL (Streptococcus pneumoniae strain BAA-658); experiment: ELISA on plates coated with E. coli lysate holding the MBP-tagged protein, antibody at 1 μg/mL
T3 construct: Tested as cleared E. coli lysate coated on ELISA plates; also called full BAA-658 peptide; strain BAA-658 FL

[2] = target: T4, synthetic peptide BAA658-PR2 (Streptococcus pneumoniae strain BAA-658, SMILES …); experiment: ELISA, biotinylated peptide on NeutrAvidin plates, antibody at 1 μg/mL
T4 peptide: {Biotin-Ahx}-TPAPAPKPEQPAEQPK-NH2

[3] = target: T5, synthetic peptide BAA658-PR1.2 (Streptococcus pneumoniae strain BAA-658, SMILES …); experiment: as above
T5 peptide: {Biotin-Ahx}-PEKPAEETPAPAPKPEQPA-NH2

[4] = target: T6, recombinant PspA-D39 with C-terminal His-tag (Streptococcus pneumoniae strain D39); experiment: SPR, Biacore 3000, PspA immobilized on CM5 chip, antibody as analyte, bivalent binding model (KD1 = kd1/ka1)
T6 construct: Made in E. coli BL21(DE3), purified on Ni Sepharose; immobilized on a CM5 chip in the SPR assay; also called pelB-PspA(D39)-His; PspA-6xHis (D39)
T6 chain: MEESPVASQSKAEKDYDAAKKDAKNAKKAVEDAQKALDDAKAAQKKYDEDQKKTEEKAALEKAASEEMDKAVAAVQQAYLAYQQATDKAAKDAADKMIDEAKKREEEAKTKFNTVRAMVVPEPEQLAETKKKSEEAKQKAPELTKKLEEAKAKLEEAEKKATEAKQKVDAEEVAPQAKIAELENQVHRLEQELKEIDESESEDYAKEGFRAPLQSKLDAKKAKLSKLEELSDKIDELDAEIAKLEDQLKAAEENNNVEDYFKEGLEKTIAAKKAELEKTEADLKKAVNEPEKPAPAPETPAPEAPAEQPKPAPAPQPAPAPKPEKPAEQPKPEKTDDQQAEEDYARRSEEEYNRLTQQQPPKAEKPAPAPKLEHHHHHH

recombinant PspA-BAA658 = recombinant PspA-BAA658 (Streptococcus pneumoniae strain BAA-658); experiment: as above
[5] = target: T7, recombinant PspA-TIGR4 with C-terminal His-tag (Streptococcus pneumoniae strain TIGR4); experiment: as above
T7 construct: Made in E. coli BL21(DE3), purified on Ni Sepharose; immobilized on a CM5 chip in the SPR assay; also called pelB-PspA(TIGR4)-His
T7 chain: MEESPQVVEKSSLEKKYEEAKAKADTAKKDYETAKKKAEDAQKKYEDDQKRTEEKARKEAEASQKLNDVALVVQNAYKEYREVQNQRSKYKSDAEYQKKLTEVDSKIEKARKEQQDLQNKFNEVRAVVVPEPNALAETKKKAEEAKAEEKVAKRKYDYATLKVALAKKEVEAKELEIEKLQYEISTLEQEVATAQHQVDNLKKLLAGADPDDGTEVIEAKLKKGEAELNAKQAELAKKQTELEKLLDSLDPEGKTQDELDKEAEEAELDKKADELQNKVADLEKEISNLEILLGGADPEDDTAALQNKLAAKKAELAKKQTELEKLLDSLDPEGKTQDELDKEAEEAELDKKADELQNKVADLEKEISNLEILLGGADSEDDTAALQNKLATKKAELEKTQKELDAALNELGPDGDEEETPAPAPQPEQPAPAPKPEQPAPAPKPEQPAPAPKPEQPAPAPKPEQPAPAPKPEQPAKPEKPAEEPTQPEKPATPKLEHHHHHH

[6] = target: T8, synthetic peptide BAA658-PR4 (Streptococcus pneumoniae strain BAA-658, SMILES …); experiment: ELISA, biotinylated peptide on NeutrAvidin plates, antibody at 1 μg/mL
T8 peptide: {Biotin-Ahx}-KPAPAPQPAPAPKPE-NH2

[7] = target: T9, synthetic peptide BAA658-PR3 (Streptococcus pneumoniae strain BAA-658, SMILES …); experiment: as above
T9 peptide: {Biotin-Ahx}-EQPAEQPKPAPAPQP-NH2

MBP-PspA-BAA658-S2 = target: T10, MBP-PspA-BAA658-S2 (Streptococcus pneumoniae strain BAA-658); experiment: ELISA on plates coated with E. coli lysate holding the MBP-tagged fragment
T10 construct: Tested as cleared E. coli lysate coated on ELISA plates; also called MBP-BAA658(S2)

MBP-PspA-BAA658-S3 [8] = target: T2, MBP-PspA-BAA658-S3; experiment: as above
MBP-PspA-BAA658-S1 = target: T11, MBP-PspA-BAA658-S1 (Streptococcus pneumoniae strain BAA-658); experiment: as above
T11 construct: Tested as cleared E. coli lysate coated on ELISA plates; also called MBP-BAA658(S1)

[9] = target: T8, synthetic peptide BAA658-PR4; experiment: ELISA, biotinylated peptide on NeutrAvidin plates
[10] = target: T4, synthetic peptide BAA658-PR2; experiment: ELISA, biotinylated peptide on NeutrAvidin plates
[11] = target: T5, synthetic peptide BAA658-PR1.2; experiment: ELISA, biotinylated peptide on NeutrAvidin plates
[12] = target: T12, synthetic peptide BAA658-PR1 (Streptococcus pneumoniae strain BAA-658, SMILES …); experiment: ELISA, biotinylated peptide on NeutrAvidin plates
T12 peptide: {Biotin-Ahx}-PEKPAEETPAPAPKPEQ-NH2

[13] = target: T9, synthetic peptide BAA658-PR3; experiment: ELISA, biotinylated peptide on NeutrAvidin plates

B1: anti-PspA mouse monoclonal antibody 139G3 (antibody, V domains shown)
VH: EVQLQQSGTEVVKPGASVKLSCTASGFNIKDTYIHWVKKRPEQGLEWIGRIDPANGNTRYDPKFQGKATMTADTSSNTAYLQVSSLTSEDTAVYYCSRSDKFVWFAYWGQGTLVTVSA
VL: DIVLTQSPVSLTVYMGQRATISCRASQSVSTSSYNYIHWFQQKPGQPPKLLIKYASTLESGVPARFSGGGSGTDFTLNIHPVEEEDAATYSCQHSWEIPYTFGGGTKLEIK
notes: Hybridoma antibody, mouse IgG2a, kappa, raised against PspA-TIGR4; also called clone 139G3
binds: binding result (MBP-PspA-BAA658-S4) | binding result (MBP-PspA-BAA658-S3 [1]) | binding result (MBP-PspA-BAA658-FL) | binding result [2] | binding result [3]

B2: anti-PspA mouse monoclonal antibody 140H1 (antibody, V domains shown)
VH: QIQLVQSGPELKKPGETVRISCKASGYTFTTAGMQWVQKVPGKGLQWIGWINTHSGVPTYAEDFKGRIAFSLETSASAAYLQISNLKDEDTATYFCGRSGTGYAMDYWGQGTSVIVSS
VL: DTVMSQSPSSLVVSVGEKVSMSCKSSQNLLYTNNQKNYLAWYQQKPGQSPKLLIYWASTRESGVPDRFTGSGSGTDFTLTITSVKAEDLAVYYCQQYYTYPYTFGGGTKLEIK
notes: Hybridoma antibody, mouse IgG1, kappa, raised against PspA-D39; also called clone 140H1
< 100 nM: Kd [4] | Kd (recombinant PspA-BAA658) | Kd [5]
binds: binding result (MBP-PspA-BAA658-S4) | binding result (MBP-PspA-BAA658-S3 [1]) | binding result (MBP-PspA-BAA658-FL) | binding result [6] | binding result [7]

B3: anti-PspA mouse monoclonal antibody 140G1 (antibody, V domains shown)
VH: QVQLKESGPGLVAPSQSLSITCTVSGFSLIGYGVNWVRQPPGKGLEWLGMIWGDGSTDYNLVLKSRLSINKDNSKSQVFLQMNSLQTDDTARYYCARGPQWGFAYWGQGTLVSVSA
VL: DIVMSQSPSSLAVSAGEKVTMSCKSSQSLLNSRTRKNYLAWYQQKPGQSPKLLIYWASTRESGVPDRFTGSGSGTDFTLTISSVQAEDLAVYYCKQSYNLPTFGGGTKLEIK
notes: Hybridoma antibody, mouse IgG1, kappa, raised against PspA-D39; also called clone 140G1
binds: binding result (MBP-PspA-BAA658-S4) | binding result (MBP-PspA-BAA658-FL)
no binding (tested: 1 μg/mL): binding result (MBP-PspA-BAA658-S2) | binding result (MBP-PspA-BAA658-S3 [8]) | binding result (MBP-PspA-BAA658-S1) | binding result [9] | binding result [10] | binding result [11] | binding result [12] | binding result [13]

B4: anti-PspA mouse monoclonal antibody 140G11 (antibody, V domains shown)
VH: B3 VH with I30T, L61S, V62A, N70S, Q81K, S113T
VL: B3 VL
notes: Hybridoma antibody, mouse IgG2a, kappa, raised against PspA-D39; also called clone 140G11
no binding (tested: 1 μg/mL): binding result (MBP-PspA-BAA658-S2) | binding result (MBP-PspA-BAA658-S3 [8]) | binding result (MBP-PspA-BAA658-S1) | binding result [9] | binding result [10] | binding result [11] | binding result [12] | binding result [13]
